The source of these data is US20070172470A1, “Phosphatase regulation of nucleic acid transcription” (The Regents of the University of California, priority 2003, published 2007).

The subject of test [1] is T3 receptor activity on DR+4 TRE-TK-Luc reporter. The test is described as follows: Luciferase reporter assay, ligand-activated T3 receptor. To be noted: 100 nM T3, DR+4 TRE-TK-Luc. Type of test: cell-based, human. From the text:
(§1) Gal4-DNA binding domain-SCP1 fusion protein expression plasmids-were cotransfected in HEK293 cells with a Gal 4-TKLuc reporter plasmid and luciferase gene expression quantitated. In all panels, results of triplicate transfections are shown +/− SD. Data is expressed as fold-activation experimental/control). […] The indicated amounts of SCP1 or mutant SCP1 expression plasmids were cotransfected in HEK293 cells along with Gal 4-VP16 expression and Gal 4-TK-Luc reporter plasmids and luciferase activity was quantitated. […] The indicated receptor expression plasmids were cotransfected with their cognate promoter-reporter plasmids with or without SCP1 or mutant SCP1 expression plasmids. Cells were treated or untreated with receptor-specific ligands as described infra. […] The indicated concentrations of SCP1 and mutant SCP1 expression plasmids were cotransfected with LMX1 and E47 expression plasmids and the rat insulin 1 promoter-luciferase reporter gene. Luciferase activity was measured as described.
(§2) Tissue Culture and Transfections: Human 293, COS7 and CV1 cells were grown at 37° C. in DMEM supplemented with 10% normal calf serum (BRL). Sub-confluent cells were transfected in 6 well tissue culture dishes using Effectene (Qiagen) according to the manufacturer's instructions. Reporter and activator plasmids (100 ng each) and Flag SCP1 (80 ng) or its mutant were used per well. […]

In test [2] the test system is glucocorticoid receptor activity on GRE-TK-Luc construct. The test is described as follows: Luciferase reporter assay, dexamethasone-stimulated glucocorticoid receptor. Type of test: cell-based, human. To be noted: 100 nM dexamethasone.
From the text: as §1, §2

Test [3] concerns the target T1, RNAP IIO (Bos taurus, UniProt G3MZY8).
T1 construct: Calf thymus RNAP IIA was purified; from tissue; host or cells: calf thymus
The test is described as follows: CTD phosphatase assay with RNAP IIO as substrate. The format is biochemical, calf. The procedure:
FIGS. 2C and 2D show a CTD phosphatase assay of FCP1 and SCP1 on GST-CTDo and RNAP IIO prepared by MAPK2/ERK2. Increasing amounts of FCP1 or GST-SCP1 214 were assayed in the presence of 75 fmol GST-CTDo (lanes 1-6), 75 fmol RNAP IIO (lanes 7-12), or 75 fmol GST-CTDo and 75. fmol RNAP IIO (lanes 13-18). Both GST-CTDo and RNAP IIO substrates were prepared by the in vitro phosphorylation of CKII-labeled GST-CTDa or RNAP IIA by MAPK2/ERK2. All reactions were carried out in the presence of 7 pmol RAP74. CTD dephosphorylation of both GST-CTDo and RNAP IIO is shown by the increase in mobility of GST-CTDo to GST-CTDa and subunit IIo to IIa, respectively. The difference in the intensity of radiolabeled GST-CTDoand that of radiolabeled subunit IIo is not a reflection of a difference in the amount of substrates present, but of the higher efficiency with which CKII incorporates radiolabeled phosphates onto the most C-terminal serine of GST-CTDa compared to subunit. IIa.
Increasing amounts of GST-SCP1 214 were assayed in the presence of 3.7 fmol RNAP IIO prepared by CTDK1/CTDK2, TFIIH, P-TEFb, MAPK2/ERK2 and Cdc2 kinase. All reactions were carried out in-the presence of 7 pmol. RAP74. CTD dephosphorylation of RNAP IIO isozymes. by qSTSCP1 214 is shown by an increase in mobility of subunit IIo to that of IIa. The results are summarized in the graph showing the percent of RNAP IIO remaining as a function of increasing SCP1 concentrations.
Preparation and Purification of ^32P-RNAP IIO Isozymess and ^32P-GST-CTDo: Calf thymus RNAP IIA was purified by the method of Hodo and Blatti (30) with modifications as described by Kang and Dahmus (31). Specific isozymes of ^32p-labeled RNAP IIO were prepared by phosphorylation at the most C-terminal serine (CKII site) in the largest subunit of purified RNAP IIA with recombinant CKII and […], followed by CTD phosphorylation in the presence of 2 mM ATP with either purified CTDK1/CTDK2, TFIIH, P-TEFb, recombinant MAPK2/ERK2 or recombinant Cdc2 kinase. The RNAP IIO isozymes were individually purified over a DE53 column with a step elution of 500 mM KCl (28). Because only the most C-terminal serine is labeled with ^32p and lies outside. the consensus repeat, dephosphorylation by CTD phosphatase results in an electrophoretic mobility shift in SDS-PAGE of subunit IIo to the position of subunit IIa without the loss of label. Similarly, ^32P-labeled GST-CTDo was prepared from GST-CTDa by CKII followed by MAPK2/ERK2. GST-CTDo was purified over a glutathione-agarose column with a step elution of 15 mM glutathione.
CTD phosphatase assays utilizing RNAP IIO and GST-CTDo as substrate were performed as described previously (32) with minor modifications. Reactions were performed in 20 μl of CTD phosphatase buffer (50 mM Tris-HCl, pH 7.9, 10 mM MgCl2, 20% glycerol, 0.025% Tween 80, 0.1 mM EDTA, 5 mM DTT) in the presence of 20 mM KCl. Each reaction contained specified amounts of GST-CTDo and/or RNAP IIO and was carried out in the presence of 7 pmol RAP74. Reactions were initiated by the addition of FCP1 or SCP1 and incubated at 30° C. for 30 minutes. Assays were terminated by the addition of 5× Laemmli buffer, and RNAP II subunits and GST-CTD were resolved on a 5% SDS-PAGE gel. The gel images were developed by autoradiography and scanned by Molecular Dynamics Image Scanner Storm 860 in the phosphor screen mode. Data were quantitatively analyzed by ImageQuant software.

[4] abbreviates: 3.7 fmol RNAP IIO, 7 pmol RAP74.

B1: SCP1: small CTD phosphatase-1, full-length 261 aa human protein, SEQ ID NO:2 (protein, listed as Homo sapiens)
chain: MDSSAVITQISKEEARGPLRGKGDQKSAASQKPRSRGILHSLFCCVCRDDGEALPAHSGAPLLVEENGAIPKTPVQYLLPEAKAQDSDKICVVIDLDETLVHSSFKPVNNADFIIPVEIDGVVHQVYVLKRPHVDEFLQRMGELFECVLFTASLAKYADPVADLLDKWGAFRARLFRESCVFHRGNYVKDLSRLGRDLRRVLILDNSPASYVFHPDNAVPVASWFDNMSDTELHDLLPFFEQLSRVDDVYSVLRQPRPGS
Regarding B1, in test [1], the “ligand-activated T3 receptor activity” value is given as “inhibited”. For the same molecule, the “dexamethasone-stimulated glucocorticoid receptor activity” value in test [2] is on record as “inhibited”. Further, the “dephosphorylation of RNAP IIO generated by Abl tyrosine kinase” value in test [3] is “unable to dephosphorylate”. Also, in test [3] (setting [4]), the “dephosphorylation of RNAP IIO generated by TFIIH” value was “most efficiently dephosphorylates” and the “dephosphorylation of RNAP IIO prepared with Cdc2 kinase” value is “unable to dephosphorylate”. The “dephosphorylation of RNAP IIO isozymes prepared with P-TEFb, MAPK2/ERK2 and CTDK1/CTDK2” value in test [3] (relative to RNAP IIO prepared with TFIIH) is recorded as “reduced rate”.
